Residue numbers refer to the chain shown, from its start. Names may count otherwise. Where two headings read alike, the source gives them in different places.

The target in experiment [1] is T1, human CD3 epsilon (Acro Cat #CDE-H5223) (human, UniProt P07766 23-126).
T1 construct: Bought recombinant protein; also called rhCD3E
Briefly: SPR (Biacore), antibody captured, human CD3 epsilon analyte. On the procedure:
(§1) Anti-Fab or anti-Fc polyclonal antibodies were immobilized onto a CM5 chip (GE Life Sciences) using amine coupling chemistry (from Amine Coupling Kit, GE Life Sciences). The immobilization steps were carried out at a flow rate of 25 μl/min in 1×HBS-EP+ buffer (GE Life Sciences; 10× Stock diluted before use). The sensor surfaces were activated for 7 min with a mixture of NHS (0.05 M) and EDC (0.2 M). The Anti-Fab or Anti-Fc antibodies were injected over all 4 flow cells at a concentration of 25 μg/mL in 10 mM sodium acetate, pH 4.5, for 7 min. Ethanolamine (1 M, pH 8.5) was injected for 7 min to block any remaining activated groups.
(§2) Off-rate and kinetic binding experiments were performed at 25° C. using 1×HBS-EP+ buffer. Test and control antibodies were injected over the anti-Fab or anti-Fc surface at concentrations of 5-10 μg/mL for 12 seconds at a flow rate of 10 μL/min on flow cells 2, 3 and 4, followed by a buffer wash for 30 seconds at the same flow rate. […] After capturing ligand (antibody) on the anti-Fc or anti-Fab surface, the analyte (human CD3 epsilon, Acro Cat #CDE-H5223) was bound for 180 seconds, followed by a 600 second dissociation phase at a flow rate of 50 μL/min. Between each ligand capture and analyte binding cycle, regeneration was carried out using two injections of 10 mM Glycine pH 2.0 for 30 seconds at 30 μL/min, followed by a 30 second buffer wash step.
(§3) The data was fit with the Biacore T200 Evaluation software, using a 1-1 Langmuir binding model. KD (affinity, nM) was determined as a ratio of the kinetic rate constants calculated from the fits of the association and dissociation phases.
On the technique in general: In SPR one partner is held on a chip, and binding of the other changes the refractive index at the surface.

The target of experiment [2] is T2, human CD3 on T-cell lines (CD3-expressing Jurkat cells; HUT78 cells) (human, UniProt P07766 23-207).
T2 construct: On cells it stands in the CD3/TCR complex
T2 sequence (P07766 23-207 limits assumed): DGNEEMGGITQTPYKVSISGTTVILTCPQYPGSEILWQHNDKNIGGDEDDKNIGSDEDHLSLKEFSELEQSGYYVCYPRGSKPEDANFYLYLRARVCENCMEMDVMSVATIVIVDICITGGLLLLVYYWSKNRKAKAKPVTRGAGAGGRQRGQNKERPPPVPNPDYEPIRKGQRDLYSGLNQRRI
Briefly: flow cytometry, HUT78 cells.

Experiment [3] addresses T1, human CD3 epsilon (Acro Cat #CDE-H5223). Briefly: SPR (Biacore), antibody captured, human CD3 epsilon analyte. On the procedure: as §1, §2, §3
The source holds these as a separate data set.

Experiment [4] deals with T3, cynomolgus CD3 epsilon (cynomolgus monkey, UniProt Q95LI5 22-117, limits assumed).
T3 construct: Recombinant protein; also called cyno CD3E
T3 sequence: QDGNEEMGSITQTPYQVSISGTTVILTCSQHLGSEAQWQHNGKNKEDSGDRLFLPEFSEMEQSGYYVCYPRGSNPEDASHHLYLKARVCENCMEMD
Briefly: SPR (Biacore), antibody captured, cynomolgus CD3 epsilon analyte.

Experiment [5] addresses T2, human CD3 on T-cell lines …. The experiment can be described thus: flow cytometry, HUT78 cells. The source holds these as a separate data set.

T1 sequence (P07766 23-126 limits assumed): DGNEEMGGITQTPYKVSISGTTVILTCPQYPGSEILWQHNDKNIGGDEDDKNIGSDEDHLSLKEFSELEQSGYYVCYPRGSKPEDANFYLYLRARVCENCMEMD

B1: 2037-B10_Hc-F29D (antibody, human IgG1, lambda, V domains shown)
VH: EVQLVESGGGLVKPGGSLRLSCAASGFTDNKYAMNWVRQAPGKGLEWVARIRTKYNNYATYYADSVKDRFTISRDDSKNTAYLQMNSLKTEDTAVYYCVRHGNFGNSYISYWAYWGQGTPVTVSS
VL: QTVVTQEPSLTVSPGGTVTLTCGSSTGAVTSGYYPNWLQQKPGQAPRGLIGGTKFLAPGTPARFSGSLLGGKAALTLSGVQPEDEAEYYCALWYSNRWVFGGGTQLTVTG
notes: human IgG1, lambda; also called SRP 2037 F29D; 2037-B10_VH-F29D
Consider B1, for which, in experiment [1], the Kd (usually the constant that tells how readily two partners part at equilibrium) stood at 2.36 nM; the koff – broadly, the first-order rate constant of dissociation – was determined as 0.000491 s⁻¹; the on-rate constant (kon) (in general, a measure of how fast the partners come together) was found to be 208000 M⁻¹ s⁻¹. In addition, in experiment [2], the “Bmax (MFI)” value turned out to be 1080 MFI and binding was characterised by a dissociation constant (Kd) of 1.87 nM. In experiment [3], the Kd turned out to be 11 nM, the off-rate constant (koff) worked out at 0.000453 s⁻¹ and the kon was 41200 M⁻¹ s⁻¹. In experiment [4], binding was put at a Kd of 2.69 nM, the koff was determined as 0.000573 s⁻¹ and the kon came out at 213000 M⁻¹ s⁻¹.

B2: SRP 2037-B10 Y61D/R97D (antibody, human IgG1, lambda, V domains shown)
VH: B1 VH with D29F, Y61D
VL: B1 VL with R97D
notes: human IgG1, lambda
Turning to B2, in experiment [3], binding was characterised by a dissociation constant (Kd) of 3.91 nM, the off-rate constant (koff) stood at 0.00029 s⁻¹ and the kon came out at 74000 M⁻¹ s⁻¹. For the same molecule, in experiment [5], the “HUT78 Bmax” value was found to be 2000 and binding was characterised by a dissociation constant (Kd) of 121 nM.

B3: 2037-B10_Hc-S107D (antibody, human IgG1, lambda, V domains shown)
VH: B1 VH with D29F, S107D
VL: B1 VL
notes: human IgG1, lambda; also called SRP 2037 S107D; 2037-B10_VH-S107D
On to B3, for which, in experiment [1], binding was characterised by a dissociation constant (Kd) of 1.47 nM, the koff was found to be 0.000215 s⁻¹ and the kon was found to be 146000 M⁻¹ s⁻¹. In experiment [2], the “Bmax (MFI)” value was 1060 MFI and the affinity, expressed as Kd, was 1.72 nM. Also, in experiment [3], the Kd was found to be 5.06 nM, the koff is 0.00041 s⁻¹ and the kon came to 81000 M⁻¹ s⁻¹. Moreover, in experiment [5], the “HUT78 Bmax” value was 1630 and the Kd is 15.6 nM. In experiment [4], the Kd worked out at 1.64 nM, the koff turned out to be 0.00034 s⁻¹ and the kon is 207000 M⁻¹ s⁻¹.

B4: SRP 2037-B10 F104D/LC6 (antibody, human IgG1, kappa, V domains shown)
VH: B1 VH with D29F, F104D
VL: DIQMTQSPSSLSASVGDRVTITCGSSTGAVTSGYYPNWLQQKPGQAPRGLIGGTKFLAPGVPSRFSGSLSGGKATLTISSLQPEDFATYYCALWYSNRWVFGGGTKVEIKR
notes: human IgG1, kappa
B4: in experiment [3], binding was put at a Kd of 3.7 nM, the koff stood at 0.000374 s⁻¹ and the kon came out at 101000 M⁻¹ s⁻¹. Moreover, in experiment [5], the “HUT78 Bmax” value is 760 and the affinity, expressed as Kd, was 24.6 nM. In experiment [4], the Kd turned out to be 14.9 nM, the koff is 0.00165 s⁻¹ and the on-rate constant (kon) was 111000 M⁻¹ s⁻¹.

B5: 2037-B10_Hc-F104D (antibody, human IgG1, lambda, V domains shown)
VH: B1 VH with D29F, F104D
VL: B1 VL
notes: human IgG1, lambda; also called SRP 2037 F104D; 2037-B10_VH-F104D
In experiment [1], B5 came in with a Kd of 7.82 nM, a koff of 0.000631 s⁻¹ and a kon of 80700 M⁻¹ s⁻¹. In experiment [2], the “Bmax (MFI)” value came out at 617 MFI and the Kd worked out at 1.72 nM. In experiment [3], the dissociation constant Kd came out at 3.38 nM, the off-rate (koff) worked out at 0.000241 s⁻¹ and the kon is 71200 M⁻¹ s⁻¹. In addition, in experiment [5], the “HUT78 Bmax” value was determined as 1200 and binding was put at a Kd of 23 nM. Besides, in experiment [4], the Kd was found to be 6.45 nM, the off-rate (koff) was determined as 0.00107 s⁻¹ and the kon came to 166000 M⁻¹ s⁻¹.

B6: SRP 2037-B10 S107D/R97D (antibody, human IgG1, lambda, V domains shown)
VH: B1 VH with D29F, S107D
VL: B1 VL with R97D
notes: human IgG1, lambda
For the molecule B6, in experiment [3], binding was characterised by a dissociation constant (Kd) of 15.8 nM, the koff is 0.000474 s⁻¹ and the kon turned out to be 30100 M⁻¹ s⁻¹. Further, in experiment [5], the “HUT78 Bmax” value came to 1800 and the dissociation constant (Kd) amounted to 38.1 nM.

B7: SRP 2037-B10 Y55D/R97D (antibody, human IgG1, lambda, V domains shown)
VH: B1 VH with D29F, Y55D
VL: B1 VL with R97D
notes: human IgG1, lambda
Turning to B7, in experiment [3], the Kd was 5.07 nM, the koff amounted to 0.000441 s⁻¹ and the kon was 87000 M⁻¹ s⁻¹. Further, in experiment [5], the “HUT78 Bmax” value was 1190 and the affinity, expressed as Kd, was 62.4 nM.

B8: SRP 2037-B10 F104D/R97D (antibody, human IgG1, lambda, V domains shown)
VH: B1 VH with D29F, F104D
VL: B1 VL with R97D
notes: human IgG1, lambda
Regarding B8, in experiment [3], the dissociation constant (Kd) was 6.99 nM, the koff is 0.000115 s⁻¹ and the kon was 16400 M⁻¹ s⁻¹. For the same molecule, in experiment [5], the “HUT78 Bmax” value was 2710 and binding was put at a Kd of 126 nM.

B9: SRP 2037-B10 F29D/LC6 (antibody, human IgG1, kappa, V domains shown)
VH: B1 VH
VL: B4 VL
notes: human IgG1, kappa
In experiment [3], B9 registered a Kd of 18.5 nM, a koff of 0.000749 s⁻¹ and a kon of 40500 M⁻¹ s⁻¹. Further, in experiment [5], the “HUT78 Bmax” value turned out to be 1040 and the Kd amounted to 3.72 nM. In experiment [4], this molecule came in with a dissociation constant Kd of 5.87 nM, an off-rate constant (koff) of 0.00121 s⁻¹ and an association rate constant (kon) of 206000 M⁻¹ s⁻¹.

B10: SRP 2037-B10 Y55D/LC6 (antibody, human IgG1, kappa, V domains shown)
VH: B1 VH with D29F, Y55D
VL: B4 VL
notes: human IgG1, kappa
Turning to B10, in experiment [3], binding was put at a Kd of 3.89 nM, the koff came out at 0.000392 s⁻¹ and the kon came to 101000 M⁻¹ s⁻¹. Also, in experiment [5], the “HUT78 Bmax” value is 1250 and binding was put at a Kd of 6.35 nM. In addition, in experiment [4], the Kd amounted to 2.09 nM, the off-rate (koff) was 0.000945 s⁻¹ and the kon is 451000 M⁻¹ s⁻¹.

B11: SRP 2037-B10 Y61D/LC5 (antibody, human IgG1, kappa, V domains shown)
VH: B1 VH with D29F, Y61D
VL: DTQVTQSPSLSASVGDRVTITCGSSTGAVTSGYYPNWLQQKPGQAPRGLIGGTKFLAPGVPSRFSGSGSGTDFTLTISSLQPEDFATYYCALWYSNRWVFGGGTKVEIKR
notes: human IgG1, kappa
On to B11, for which, in experiment [5], the “HUT78 Bmax” value is 772 and the Kd came out at 312 nM.

B12: SRP 2037-B10 S107D/LC6 (antibody, human IgG1, kappa, V domains shown)
VH: B1 VH with D29F, S107D
VL: B4 VL
notes: human IgG1, kappa; also called 2037-B10 IgG S107D Lc6
As to B12, in experiment [3], the dissociation constant (Kd) came out at 8.62 nM, the koff stood at 0.000459 s⁻¹ and the kon worked out at 53200 M⁻¹ s⁻¹. In experiment [5], the “HUT78 Bmax” value amounted to 1550 and binding was put at a Kd of 17.3 nM. Also, in experiment [4], binding was put at a Kd of 3.41 nM, the koff amounted to 0.000558 s⁻¹ and the kon is 164000 M⁻¹ s⁻¹.

B13: 2037-B10_Lc-R97D (antibody, V domains shown)
VH: not shown
VL: B1 VL with R97D
notes: human IgG1, lambda; also called SRP 2037 R97D; 2037-B10 VL-R97D
B13: in experiment [2], the “Bmax (MFI)” value stood at 953 MFI and the Kd was 0.58 nM. In experiment [3], this molecule registered a Kd of 1.49 nM, an off-rate (koff) of 0.000257 s⁻¹ and an association rate constant (kon) of 172000 M⁻¹ s⁻¹. Also, in experiment [5], the “HUT78 Bmax” value came out at 2080 and the Kd is 2.93 nM.

B14: SRP 2037-B10 Y61D/LC6 (antibody, human IgG1, kappa, V domains shown)
VH: B1 VH with D29F, Y61D
VL: B4 VL
notes: human IgG1, kappa
In experiment [3], B14 showed a Kd of 3.63 nM, a koff of 0.000369 s⁻¹ and a kon of 102000 M⁻¹ s⁻¹. Also, in experiment [5], the “HUT78 Bmax” value was determined as 737 and the Kd came to 6.61 nM. In addition, in experiment [4], the equilibrium dissociation constant (Kd) is 3.99 nM, the koff was found to be 0.00154 s⁻¹ and the kon was 387000 M⁻¹ s⁻¹.

The record behind these values is US20240124585A1 (SUTRO BIOPHARMA, published 2024).
